Source: PMC11493271, “The N-terminal activation function AF-1 domain of ERα interacts directly with the C-terminal AF-2-holding ligand-binding domain to recruit the coactivator proteins” (PLOS ONE, 2024)
“Also recorded” adds a separate entry of the source.

What was measured:
[1] = target: desNTD(AF-1)-ERα, ERα C-terminal fragment with amino acid residues 181-595 (human) (UniProt P03372)
[2] = target: full-length estrogen receptor alpha (ERα), wild type (1-595) (human) (UniProt P03372)
[3] = target: full-length estrogen receptor alpha (ERα), wild type (1-595) (human) (UniProt P03372); remark: listed apart in the source
[4] = tested on: 3 × ERE/pGL3 luciferase reporter; assay: Transcription activity of truncated ERα derivatives in the luciferase reporter gene assay (HeLa cells); details: plasmid 250 ng/well
Protocol: (§1) The luciferase reporter gene assays were carried out exactly as described above.

full-length ERα = target: T1, full-length ERα (Homo sapiens, UniProt P03372); assay: ERα-NTD(AF-1) inhibition assay: co-expression with full-length ERα, luciferase reporter gene assay in HeLa cells; assay type: cell-based; details: for effect on transcription activity of full-length ERα: plasmid 0.01–2.00 μg/well with full-length ERα 0.05 μg/well, E2 0.1, 1 or 50 nM, Fig 3
T1 construct: […]; host or cells: HeLa cells
T1 sequence (P03372 1-595): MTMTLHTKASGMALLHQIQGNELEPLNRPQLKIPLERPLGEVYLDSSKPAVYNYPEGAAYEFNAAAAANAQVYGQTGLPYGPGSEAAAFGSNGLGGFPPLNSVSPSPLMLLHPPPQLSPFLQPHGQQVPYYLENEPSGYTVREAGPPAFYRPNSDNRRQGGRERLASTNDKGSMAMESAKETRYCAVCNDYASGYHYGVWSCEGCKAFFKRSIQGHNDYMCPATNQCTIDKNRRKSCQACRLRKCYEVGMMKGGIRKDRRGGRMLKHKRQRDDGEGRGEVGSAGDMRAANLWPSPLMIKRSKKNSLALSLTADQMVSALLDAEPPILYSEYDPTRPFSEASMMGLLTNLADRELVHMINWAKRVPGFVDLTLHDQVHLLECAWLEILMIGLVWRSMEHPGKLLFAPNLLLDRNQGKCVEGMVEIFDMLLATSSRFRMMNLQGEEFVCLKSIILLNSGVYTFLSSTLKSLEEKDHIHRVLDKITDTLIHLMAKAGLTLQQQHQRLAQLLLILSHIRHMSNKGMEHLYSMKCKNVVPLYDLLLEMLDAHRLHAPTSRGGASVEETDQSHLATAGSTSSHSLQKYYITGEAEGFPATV
Protocol: Other expression plasmids were used in fixed amounts: full-length ERα/pcDNA3.1 (0.05 μg/well), 3 × ERE/pGL3 (0.15 μg/well), and pGL4.74 (0.05 μg/well) (Table 1).
Gene transfections followed by luciferase reporter gene assays were carried out basically as described above.
Thus, each distinct maximal activity was evaluated precisely as a percentage.

desNTD(AF-1)-ERα = target: T2, desNTD(AF-1)-ERα (Homo sapiens, UniProt P03372); assay: Luciferase reporter gene assay for desNTD(AF-1)-ERα, alone or co-expressed with ERα-NTD(AF-1), in HeLa cells
T2 sequence (P03372 181-595): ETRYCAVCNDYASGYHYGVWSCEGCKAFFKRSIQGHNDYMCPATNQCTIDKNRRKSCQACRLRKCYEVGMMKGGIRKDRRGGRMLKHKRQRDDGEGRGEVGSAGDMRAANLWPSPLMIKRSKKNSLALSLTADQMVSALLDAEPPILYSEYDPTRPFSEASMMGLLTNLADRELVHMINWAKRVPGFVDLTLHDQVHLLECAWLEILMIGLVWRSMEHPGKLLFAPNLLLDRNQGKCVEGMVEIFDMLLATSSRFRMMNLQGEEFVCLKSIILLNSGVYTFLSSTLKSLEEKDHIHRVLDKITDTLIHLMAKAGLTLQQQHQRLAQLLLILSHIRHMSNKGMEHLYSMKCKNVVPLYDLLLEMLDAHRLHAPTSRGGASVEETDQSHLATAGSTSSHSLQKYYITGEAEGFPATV
Protocol: as §1

ERα-NTD(AF-1), untethered free N-terminal fragment of estrogen receptor alpha (residues 1-180), non-tagged (from UniProt P03372 1-180) (domain or fragment)
luciferase reporter gene assay in HeLa cells: apparent IC50 of the ERα-NTD(AF-1) plasmid (amount transfected per well of a 6-well microplate) for inhibition of desNTD(AF-1)-ERα [1]: 863 ng/well
luciferase reporter gene assay in HeLa cells: apparent IC50 of the ERα-NTD(AF-1) plasmid (amount transfected per well of a 6-well microplate) for the activity of 10 nM E2 on full-length ERα [2]: 836 ng/well
luciferase reporter gene assay in HeLa cells: IC50 of the ERα-NTD(AF-1) plasmid (amount transfected per well of a 6-well microplate) from the curve of the maximal activity of ERα/E2 [3]: 631 ng/well

B1: ERα-NTD(AF-1): ERα N-terminal fragment with amino acid residues 1–180, expressed from plasmid ERα-NTD(AF-1)/pcDNA3.1 (protein)
chain: MTMTLHTKASGMALLHQIQGNELEPLNRPQLKIPLERPLGEVYLDSSKPAVYNYPEGAAYEFNAAAAANAQVYGQTGLPYGPGSEAAAFGSNGLGGFPPLNSVSPSPLMLLHPPPQLSPFLQPHGQQVPYYLENEPSGYTVREAGPPAFYRPNSDNRRQGGRERLASTNDKGSMAMESAK
transcription activation (response to E2) ([4]; construct expressed alone): completely inactive; also recorded: completely devoid of transcription activation
relative activity (% of wild-type full-length ERα) ([4]; maximal E2 activity): 0%
IC50 from transfection amount vs maximal activity of ERα/E2 (full-length ERα; E2 dose-response maxima, plasmid per well of 6-well microplate, Fig 4C): 631 ng/well
effect on transcription activity of full-length ERα (full-length ERα): reduced in a dose-dependent manner
apparent IC50 for inhibition of full-length ERα (full-length ERα; residual activity of 10 nM E2, plasmid per well of 6-well microplate, Fig 4A): 836 ng/well
mode of inhibition of full-length ERα (full-length ERα; with respect to E2): non-competitive inhibitor
reduction in E2-induced transactivation compared to desNTD(AF-1)-ERα alone (desNTD(AF-1)-ERα; ERα-NTD(AF-1): desNTD(AF-1)-ERα = 1:1, desNTD(AF-1)-ERα 250 ng/well): ~20%
apparent IC50 for inhibition of desNTD(AF-1)-ERα (desNTD(AF-1)-ERα; plasmid amount per well of 6-well microplate used for transfection): 863 ng/well
reduction in E2-induced transactivation compared to desNTD(AF-1)-ERα alone (desNTD(AF-1)-ERα; ratio 2:1): 44%
reduction in E2-induced transactivation compared to desNTD(AF-1)-ERα alone (desNTD(AF-1)-ERα; ratio 3:1): 62%
reduction in E2-induced transactivation compared to desNTD(AF-1)-ERα alone (desNTD(AF-1)-ERα; ratio 4:1): 73%
reduction in E2-induced transactivation compared to desNTD(AF-1)-ERα alone (desNTD(AF-1)-ERα; ratio 5:1): 85%
reduction in E2-induced transactivation compared to desNTD(AF-1)-ERα alone (desNTD(AF-1)-ERα; ratio 6:1): 91%

B2: FLAG-ERα-NTD(AF-1): ERα-NTD(AF-1) tagged at the N-terminus with DYKDDDDK, a FLAG-epitope peptide (protein)
chain: MTMTLHTKASGMALLHQIQGNELEPLNRPQLKIPLERPLGEVYLDSSKPAVYNYPEGAAYEFNAAAAANAQVYGQTGLPYGPGSEAAAFGSNGLGGFPPLNSVSPSPLMLLHPPPQLSPFLQPHGQQVPYYLENEPSGYTVREAGPPAFYRPNSDNRRQGGRERLASTNDKGSMAMESAK
modifications: left off: FLAG, N-terminal, kept
effect on transcription activity of full-length ERα (full-length ERα): inhibits full-length ERα
